Substrate: NC(=O)N[C@H]1NC(=O)NC1=O
Assay: purified protein
Format: biochemical, Klebsiella pneumoniae
Conditions: 10 mM NaCl, 10 mM HEPES, pH 7.5, 25 °C, no cofactor or metal

B1: KpHpxA (K. pneumoniae allantoin racemase) (Klebsiella pneumoniae subsp. pneumoniae MGH 78578) (protein)
chain: MSSVRIQVINPNTSLAMTETIGAAARAVAAPGTEILAVCPRAGVPSIEGHFDEAIAAVGVLEQIRAGREQGVDGHVIACFGDPGLLAARELAQGPVIGIAEAAMHMATMVATRFSIVTTLPRTLIIARHLLHQYGFHQHCAALHAIDLPVLALEDGSGLAQEKVRERCIRALKEDGSGAIVLGCGGMATLAQELTRELRVPVIDGVSAAVKMVESLVALGLATSKHGDLAFPEKKALSGQFQSLNPF
- kcat: 183 ± 17 s⁻¹
